Data: patent US20190256610A1 (NATIONAL UNIVERSITY CORPORATION HOKKAIDO UNIVERSITY, published 2019)

Experiments:
human Eva1 protein [1] = target: T1, human Eva1 protein (human, UniProt O60487 27-150, limits assumed); experiment: SPR (Biacore), as for the mouse antibodies
T1 construct: Soluble analyte in the SPR work and partner in the crystal; it calls it 'the antigen, that is, the Eva1 protein'; also called human-derived Eva1 protein; hEva1
T1 sequence: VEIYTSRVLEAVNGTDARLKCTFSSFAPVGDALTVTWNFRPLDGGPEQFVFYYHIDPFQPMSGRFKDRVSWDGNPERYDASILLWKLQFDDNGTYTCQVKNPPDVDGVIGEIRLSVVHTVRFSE
From the text: (§1) To select hybridomas for producing antibodies having a higher antigen affinity from the 28 hybridomas, a surface plasmon resonance assay system Biacore was used to calculate the KD value and so forth of each antibody (hereinafter also referred to as “candidate antibody”). Concretely, first, an antibody capable of capturing mouse IgG was immobilized on a dextran-coated sensor chip (CMS, manufactured by GE health care). Then, this antibody captured each candidate antibody on the sensor chip. Subsequently, the antigen, that is, the Eva1 protein was flowed. Note that, in flowing the antigen, a solution of 10 mM-Tris-HCl (pH 7.5), 150 mM-NaCl, and 3 mM-EDTA (pH 8.0) was used. Moreover, as a solution for dissociating the antigen from the candidate antibody (captured candidate-antibody resuscitation solution), a 10 mM glycine solution (pH 1.7) was used. Thus, using these solutions, the binding reaction and the dissociation reaction between each candidate antibody and the antigen were detected with Biacore, and analyzed using the attached software.
Further, the binding reaction and the dissociation reaction between the B2E5-48 chimeric antibody and the antigen were detected with Biacore as in the case of the mouse antibodies.

human Eva1 mutant (I81M) = target: T2, human Eva1 mutant (I81M) (human, UniProt O60487 27-150, limits assumed); experiment: SPR
T2 construct: Human residue replaced by the mouse one
T2 chain: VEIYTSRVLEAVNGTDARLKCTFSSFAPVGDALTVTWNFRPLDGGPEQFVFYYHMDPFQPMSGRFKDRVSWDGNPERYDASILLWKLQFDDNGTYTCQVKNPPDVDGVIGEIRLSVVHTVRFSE

human Eva1 P72R mutant = target: T3, human Eva1 P72R mutant (human, UniProt O60487 27-150, limits assumed); experiment: SPR
T3 chain: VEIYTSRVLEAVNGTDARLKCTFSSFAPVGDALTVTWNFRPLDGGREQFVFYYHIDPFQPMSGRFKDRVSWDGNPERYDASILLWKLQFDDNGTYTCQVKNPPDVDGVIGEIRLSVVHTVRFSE

[2] = target: T4, human Eva1 mutant (R33G, V34A, V134L, I135V, E137T) (human, UniProt O60487 27-150, limits assumed); experiment: SPR
T4 construct: Human residues replaced by the mouse ones
T4 chain: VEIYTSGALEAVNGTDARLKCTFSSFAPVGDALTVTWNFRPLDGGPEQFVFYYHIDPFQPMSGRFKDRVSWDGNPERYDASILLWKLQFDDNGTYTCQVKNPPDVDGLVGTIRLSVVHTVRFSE

[3] = target: T5, human Eva1 mutant (L68R, P72R) (human, UniProt O60487 27-150, limits assumed); experiment: SPR
T5 construct: Human residues replaced by the mouse ones; also called (L68R and P72R) double mutant
T5 chain: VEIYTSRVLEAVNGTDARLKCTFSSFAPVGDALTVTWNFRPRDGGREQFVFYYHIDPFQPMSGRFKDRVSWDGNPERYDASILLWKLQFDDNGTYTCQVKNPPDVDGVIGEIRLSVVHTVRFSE

mouse Eva1 protein = target: T6, mouse Eva1 protein (mouse, UniProt O70255 27-150, limits assumed); experiment: SPR
T6 construct: Used in SPR; also called mouse-derived Eva1 protein; mEva1
T6 sequence: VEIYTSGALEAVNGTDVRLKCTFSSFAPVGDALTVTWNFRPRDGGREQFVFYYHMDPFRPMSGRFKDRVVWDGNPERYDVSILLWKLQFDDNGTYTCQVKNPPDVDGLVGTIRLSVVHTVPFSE

human Eva1 L68R mutant = target: T7, human Eva1 L68R mutant (human, UniProt O60487 27-150, limits assumed); experiment: SPR
T7 chain: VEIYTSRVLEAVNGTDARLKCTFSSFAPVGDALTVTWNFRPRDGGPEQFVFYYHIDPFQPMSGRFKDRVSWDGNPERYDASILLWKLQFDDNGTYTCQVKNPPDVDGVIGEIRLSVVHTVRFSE

[4] = target: T8, human Eva1 mutant (A43V, S96V, Q85R) (human, UniProt O60487 27-150, limits assumed); experiment: SPR
T8 construct: Human residues replaced by the mouse ones
T8 chain: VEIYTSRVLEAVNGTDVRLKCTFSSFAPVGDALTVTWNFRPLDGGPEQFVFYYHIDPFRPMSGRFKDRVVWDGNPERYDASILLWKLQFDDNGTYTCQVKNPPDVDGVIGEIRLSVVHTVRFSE

human Eva1 protein [5] = target: T1, human Eva1 protein; experiment: SPR (Biacore), antibody captured by anti-mouse IgG, Eva1 flowed
From the text: as §1

human Eva1 protein [6] = target: T1, human Eva1 protein; experiment: SPR
human Eva1 Y104A mutant = target: T9, human Eva1 Y104A mutant (human, UniProt O60487 27-150, limits assumed); experiment: SPR with alanine mutants
T9 chain: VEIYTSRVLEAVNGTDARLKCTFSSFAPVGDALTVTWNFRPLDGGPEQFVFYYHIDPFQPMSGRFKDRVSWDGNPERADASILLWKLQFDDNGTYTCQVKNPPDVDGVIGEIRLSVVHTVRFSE

human Eva1 Y30A mutant = target: T10, human Eva1 Y30A mutant (human, UniProt O60487 27-150, limits assumed); experiment: SPR
T10 chain: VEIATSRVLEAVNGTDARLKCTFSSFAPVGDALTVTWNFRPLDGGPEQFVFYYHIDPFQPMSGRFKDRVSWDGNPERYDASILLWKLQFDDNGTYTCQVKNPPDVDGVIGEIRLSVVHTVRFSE

[7] = target: T11, human Eva1 mutant with arginine at position 103 substituted with alanine (human, UniProt O60487 27-150, limits assumed); experiment: SPR with alanine mutants
T11 construct: also called R103A
T11 chain: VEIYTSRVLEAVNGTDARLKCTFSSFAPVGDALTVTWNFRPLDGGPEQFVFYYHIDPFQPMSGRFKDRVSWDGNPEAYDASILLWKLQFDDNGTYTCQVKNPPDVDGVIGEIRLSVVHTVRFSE

human Eva1 S96A mutant = target: T12, human Eva1 S96A mutant (human, UniProt O60487 27-150, limits assumed); experiment: SPR with alanine mutants
T12 chain: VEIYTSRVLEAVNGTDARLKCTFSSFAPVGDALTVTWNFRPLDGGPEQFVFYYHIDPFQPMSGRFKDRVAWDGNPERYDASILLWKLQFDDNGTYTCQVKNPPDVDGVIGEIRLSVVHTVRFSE

[8] = target: T13, human Eva1 mutant with glutamic acid at position 102 substituted with alanine (human, UniProt O60487 27-150, limits assumed); experiment: SPR with alanine mutants
T13 construct: also called E102A
T13 chain: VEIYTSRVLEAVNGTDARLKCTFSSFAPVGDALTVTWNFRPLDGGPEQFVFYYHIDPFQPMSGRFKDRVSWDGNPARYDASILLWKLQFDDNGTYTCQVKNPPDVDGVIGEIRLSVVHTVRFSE

B1: B2E5-48 chimeric antibody (antibody, V domains shown)
VH: QVQLQQPGAELVKPGASVKLSCKASGYTFTNYWMHWVKLRPGQGFEWIGEINPTNGGTDYNEKFKRKATLTVDKSSSTAYMQLSSLTSEDSAVYYCTIYTTALDYWGQGTTLTVSS
VL: QIVLTQSPALMSASPGERVTLTCSASSSVGYMYWYQQKPGSSPKPWIYVTSNLASGVPARFSGSGSGTSYSLTISSMEAEDAATYYCQQWSSNPPTFGAGTKLELK
Kd (human Eva1 protein [1]): 15.2 nM | koff (human Eva1 protein [1]): 0.00747 s⁻¹ | kon (human Eva1 protein [1]): 490000 M⁻¹ s⁻¹

B2: B2E5-48 mouse antibody (antibody, mouse IgG2b, V domains shown)
VH: QVQLQQPGAELVKPGASVKLSCKASGYTFTNYWMHWVKLRPGQGFEWIGEINPTNGGTDYNEKFKRKATLTVDKSSSTAYMQLSSLTSEDSAVYYCTIYTTALDYWGQGTTLTVSS
VL: QIVLTQSPALMSASPGERVTLTCSASSSVGYMYWYQQKPGSSPKPWIYVTSNLASGVPARFSGSGSGTSYSLTISSMEAEDAATYYCQQWSSNPPTFGAGTKLELK
notes: Mouse monoclonal from a hybridoma; also called B2E5-48 antibody
binding result (human Eva1 mutant (I81M)): binds | binding result (human Eva1 P72R mutant): no binding | binding result [2]: binds | binding result [3]: no binding | binding result (mouse Eva1 protein): no binding | binding result (human Eva1 L68R mutant): binds | binding result [4]: binds | Kd (human Eva1 protein [5]): 11.7 nM | koff (human Eva1 protein [5]): 0.00808 s⁻¹ | kon (human Eva1 protein [5]): 689000 M⁻¹ s⁻¹

B3: C3 mouse antibody (antibody, mouse IgG1, V domains shown)
VH: EVKLVESGGGLVQPGGSLKLSCAASGFTFSSYTMSWVRQTPEKRLEWVAYITTGAGRTYYPDTVKGRFTISRDNAKNTLYLQMSSLKSEDTAMYYCARHRGDYWGQGTSVTVSS
VL: SIVMTQTPKFLLVSAGDRVTITCKASQSVSNDVAWYQQKPGQSPKLLIYYASNRFTGVPDRFTGSGYGTDFTFTISTVQAEDLAVYFCQQDYSSPWTFGGGTKLEIK
notes: Mouse monoclonal from a hybridoma; also called C3 antibody
KD for human Eva1 against KD for mouse Eva1 (human Eva1 protein [6]): ~0.1 | Kd (human Eva1 protein [5]): 9.1 nM | koff (human Eva1 protein [5]): 0.00831 s⁻¹ | kon (human Eva1 protein [5]): 918000 M⁻¹ s⁻¹ | binding result (human Eva1 Y104A mutant): binds

B4: A5D11-10 mouse antibody (antibody, V domains shown)
VH: EVQLKESGPGLVQPSQSLSITCTVSGFSLTRYGVHWVRQSPGKGLEWLGVIWSGGSTDYNAAFISRLSISKDNSKSQVFFKMNSLQANDTAIYYCARNGYDGGYAMDYWGQGTSVTVSS
VL: DIQMTQTTSSLSASLGDRVTISCRASQDISNYLNWYQQKPDGTVKLLIYYTSRLHSGVPSRFSGSGSRIDYSLTISNLEQEDFATYFCQQSDTLPPWTFGGGTKLEIK
notes: Mouse monoclonal from a hybridoma; also called A5D11-10 antibody
binding result (human Eva1 Y30A mutant): no binding | Kd (human Eva1 protein [5]): 5.83 nM | koff (human Eva1 protein [5]): 0.00212 s⁻¹ | kon (human Eva1 protein [5]): 364000 M⁻¹ s⁻¹ | fold increase of KD against wild type human Eva1 [7]: ~25 fold | binding result (human Eva1 S96A mutant): binds | fold increase of KD against wild type human Eva1 [8]: ~25 fold
